Measurements published in the nanobody polyreactivity screen of Harvey et al. (2022).

assay: yeast display, Sf9 membrane polyspecificity reagent, FACS + sequencing; frameworks hold sequencing errors
Summary of the method: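 Sorting gates, low and high (top ~1%), were placed on anti-HA fluorescence to track expression and on streptavidin fluorescence to track reagent binding. A clone's polyreactivity label is taken from the gate it came out of. The reagent was 10% biotinylated, detergent-solubilized Sf9 membrane, applied for 1 hour at 4 °C to galactose-induced yeast display cells.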

Row | Sequence | polyreactivity (PSR sort gate)
1 | QVQLVESGGGLVQAGGSLRLSCAASGRTFYYNAMGWYRQAPGKERELVAAISASSGRTYYADSVKGRFTISRDNAKNTVYFPMNSLKPEDTAVYYCANRYGGDYTRGYGYWGQGTQVTVSS | high polyreactivity
2 | QVQLVESVGGLVQAGGSLRLSCPASGITFEQYAMGWYRQAPGKEREWVAAISSNGGITFYADSVKGRFTISRDNAKNTVYLQMNSLKPEDTAVYYCAARLCVTYPYIAYDYWGQGTQVTVSS | high polyreactivity
3 | QVQLVESVGGLVQAGGSLRLSCAASGSTFLRYAMGWYRQAPGKERELVAAITASGGSTYYADSVKGRFTISRDNAKKSVYLQMNSLKPEDTAVYYCAADGRYIGKNSHDLWIYGYYYWGQGTQVTVSS | low polyreactivity
4 | QVQLVESGGGLVQAGGSLRLSCAASGGTFYLNAMGWYRQAAGKERELVAGISWGGGRTYYADSVKGRFTISRDNAKNTVYLQMNSLKPEDTAVYYCAAGAWRGPYSGYYYWGQGTQVTVSS | low polyreactivity
5 | QVQLVESGGGLVQAGGSLRLSCAASGRIFYGNTLGWYRQAPGKERELVAAISSGGSTNYADSVKGRFTISRDNAKNTVYLQMNSLKPEDTAVYYCAAAGRPGGYVQRDSWGQGTQVTVSS | high polyreactivity
6 | QVQLVESGGGLVQAGGSIRLSCAASGFTFYYNTMGCYRQAPGKERELVAAISYSAGSTFYADSVKGRFTISRDNAKNTVYLQMNSLKTEDTAVYYCAAGRPRRHKGYHFGYWGQGTQVTVSS | low polyreactivity
7 | QVQLVESGGGLVQAGGSLRLSCAASGRTFAYNAMGWYRQAAGKVRELVASITSGGSTNYADSVKGRFTISRDNAKNTVYLQMNSLKPEDTAVYYFIKDGKYHRVLYEYWGQGTQVTVSS | low polyreactivity
8 | QVQLVESGGGLVQAGGSLRLSCAASGIIFRWYAMGWYRQAPGKERELVAGITSTTGTTYYADSVKGRFTISRDNAKNTVYLQMNSLKPEDSAVYYCAADYYWYTTAGVVDSFEYWGQGTQVTVSS | low polyreactivity
9 | QVQLVESGGGLVQAGGSLRLSCAASGSTFLYNAMGWYRQAPGKERELVAAISTTGARTNYADSVKGRFTISRDNAKNTVYLQMNSLKPEDTAVYYCKDRRGHYWGQGTQVTVSS | high polyreactivity
10 | QVQLVESGGGLVQAGGSLRLSCAASGRIFPYNAMGWYRHAPGKERELVAAITWSGGRTYYADSVKGRFTISRDNAKNTVYLQMNSLKPEDTAVYYCAASYRGRTNDYWGQGTQVTVSS | high polyreactivity
11 | QVQLVESGGGLVQAGGSLRLSCAASGSILEIYAMGWYRQAPGKEREVVASISWDVSSTYYADSVKGRFTISRDNAKNTVYLQMNSLKPEDTAVYYCATSLVWGLYDWYYDLSAAFDYWGQGTQVTVSS | low polyreactivity
12 | QVQLVESGGGLVQAGGSLRLSCAASGLTFSKNVMGWYRQAPGKERELVAAISGITSSTYYADSVKGRFTISRDNAKNTVYLQMNSLKPEDTAVYYCAADLSFSRPGRFGYWGQGTQVTVSS | high polyreactivity
13 | QDQLEESGGGLVQAGGSLRLSCAASGFTFHINSMGWDREAPGKEREMVAAITYSGGSTYYADSVKGRFTISRDPAKNTVYLQMNCLKPEHTAVDYCATTWYFVASWFVAIYVYWGQGTQVTVSS | low polyreactivity
14 | QVQLVESGGGLVQAGGSLRLSCAASGFIFVVYAMGWYRQAPGTERDLVATISSGGGTYYADSVKGRFTISLDNAKNTVYLQMNSLKPEDTAVYYCAARRRRLYHFGGNNYCGQGTQVTVSS | high polyreactivity
15 | QVQLVESGGGLVQAGGSLRLSCAASGGIFLYNSMGWYRQAPGKERELVADISSSGITYYADSVKGRFTISRDNAKNTVYLQMNSLNPEDTAVYYCAADSTTRPGLRVYDDYDYWGQGTQVTVSS | low polyreactivity
16 | QVQLVESGGGLVQAGGSLRFSCAATGSIFVVNAMGWYRQAPGKERELVASITWSGDNTYYADSVKGRFTISRDNAKNTVYLQMNSLKPEDTAVYYCAATIWIAYRGWYSDYNYWGQGTQVTVSS | low polyreactivity
17 | QGQPVESGGGLVQAGGSLRLSCAASGLIFRWYAMGWNRQAPVQEREVVAAISWSGASTYYADSVKGRFTISRDTPKNTVYLQMNSLKPDDTAVYYCAADYGYYGAGSYFDRGDYWGQGTQVTVSS | high polyreactivity
18 | QVQLVESGGGLVQAGGSLRLSCAASGRILYRYAMGWSRQAAGTEREVVAAISRSGGDTYYADSVKGRFTISRDNAKNTVYLQMNSLKPEDTAVYYCAGYSSWSGGLGGVYYWGQGTQVTVSS | low polyreactivity
19 | QVQLVESGGGLVQAGGSLRLSCAASGRTIKYNAMGRYRQGPGKERELVAAITYSGGSTYYADSVKGRFTIARDNAKNTVYLQMNSLKPEDTSVYYCAAESRPYDPGIYGDYDYWGQGTQVTVSS | low polyreactivity
20 | QVQLVESGGGLVQAGGSLRLSCAASGFILSRYTMGWYRQAPGKERELVATISSGGRTYYADSVKGRFTISRDNAKNTVYLQMNSLKPEDTAVYYCAAAYTYWRISGNRYLYDYWGQGTQVTVSS | high polyreactivity
21 | QVQLVESGGGLVQAGGSLSLSCAASGRIFKSYAMGWYRQAPGKERELVAAIRSGGSTYYADSVKGRFTISRDNAKNTVYFQMNSLKPEDTAVYYCNRVTRTWKVTYHYWGQGTQVTVSS | high polyreactivity
22 | QVQLVESGGGLVQAGGSLRLSCAASGSTFIWYAMGWYRQAPGKERELVAAINRSGGSTYYADSVKGRFTISRDNAKNTVYLQMNSLKPEDTAVYYCAAQGGGYRGLKYYYWGQGTQVTVSS | high polyreactivity

Row | Sequence | polyreactivity (PSR sort gate)
23 | QVQLVESGGGLVQAGGSLRLSCAASGIILYTYAMGWYRQAPGKEREFVAGIRWSGSSTYYADSVKGRFTISRDNAKNTVYLQMNSLKPEDTAVYYCATGQPYGPLYSLGYGYWGQGTQVTVSS | high polyreactivity
24 | QVQLVESGGGLVQAGGSLRLSCAASGRIFGYYTMGWYRQAPGKERELVAAINGRGTSTYYADSVKGRFTISRDNAKNTVYLQMNSLKPEDTAVYYCAARYTRTVGYDYWGQGTQVTVSS | high polyreactivity
25 | QVQLVESGGGLVQAGGSLRLSCAASGRIFGPYTMGWYRQEPGKERELVAAITGRVVSTYYADSVKGRFTISRDNAKNTVYLQMNSLQPEDTAVYYCAARIYYYNTRGDYWAQGTQVTVSS | high polyreactivity
26 | QVQLVESGGGLVQAGGSLRLSCAASGITFFLYAMGWYRQAPGKERELVAVISASGGSTYYADSVKGRFTISRDNAKNTVYLQMNSLKPEDTAVYYCAAGYRFYGFYAHDYWGQGTQVTVSS | high polyreactivity
27 | QVQLVESGGGLVQAGGSLRLSCDASGSIFYPYAMGWYRQAPGKERELVASISWSGGSTRYADSVKGRFTISRDHAKNTVYLQMNSLKPEDTAVYYCAARYILSKYGSGVRYYYWGQGTQVTVSS | high polyreactivity
28 | QVQLESGGGLVQAGGSLRLRCEASGITFQLYDMGWYRQAPGKERELVAAINSSGGSTYYADSVKGRFTISRDNAKNTVYLQMNSLKPEDTAVYYCNVGFAPVTNDQPVSTEYDYWGQGTQVTVSS | low polyreactivity
29 | QVQLVESGGGLVQAGGSLRLSCAASGRIFERYAMGWYRQAPGKERELVAGISISGGGTYYADSVKGRFTISRDNAKNTFYLQMNSLNPEDTAVYYCSATFPREEYGYWGQGTQVTVSS | low polyreactivity
30 | QVQLVESGGGLLQAGGSLRLSCAASGFIFADYMGWNRQAPGKERELVASISSTGSSTYADSVKGRFTISRDNPKNTVYLQMNSLKPEDTAVSYCAATGVWYSWYEYASEYDYWGLGTQVTVSS | high polyreactivity
31 | QVQLVESGGGLVQAGGSLRLSCAPSGNTFWDNAMGWYRQAPGKERELVAAIRWSTGSTHYADSVKGRFTISRDNAKNTVYLQMNSVKPEDTAVYYCDATDYYYYRDKYYGYDYWGQGNQVTVSS | low polyreactivity
32 | QVQHVESGGGLVQAGGSLRLSCAASGYTFRYYAMGWYRQAPGKERELVARINRSGGSTYYADSVKGRFTISRDYAKYTVYLQMNSLKPEDTAVYYCNRDYGWHYSYDYWGQGTQVTVSS | high polyreactivity
33 | QVQLEESGGGLVQAGGSLRLSCAASGSTFVYNPMGWYRQAPGKETELVAVITYRGGRTYSADSVKGRFTISRDYAKNSVYLQMNSLKPEDTAVYYCAKRVYGSKVRGYDYWGQGTQVTVSS | high polyreactivity
34 | QVQLVESGGGLVQAGGSLRLSCAASGRTFDPYAMGWYRQAPGKERELVAAITSSGGSTYYADSVKGRFTISRDNAKNTVYLQMNSLKPEDTAVYYCAAEQRDFIWWFYYWGQGTQVTVSS | high polyreactivity
35 | QVQLVESGGGLVQAGGSLRFSCAASGINFYFNAMGWYRQAPGKERELVAVITSGGSTNYADSVKGRFTISRDNAKNTVYLQMNSLKPEDTAVYYCATDKSYSSWSAQYVYWGQGTQVTVSS | low polyreactivity
36 | QVQLVESGGGLVQAGGSLRLSCAASGSTFLRNAMGWYRQAPGKEWELVATISTGSGRTYYADSVKGRFTISRDNAKNTVYLQMHSLKPEDTAVYYCAASRTLRKHRYEYWGQGTQVTVSS | high polyreactivity
37 | QVQLVESGGCLVQAGGSLRLSCAASGSTFTYNAMGGYRQAPGKERELVAGISWRGGRTYYADSVKGRFTISRDTAKNTVYLQMNSLKPEDTAVYYCNARLWGTHYEYARMYYWGQGTQVTVSS | low polyreactivity
38 | QVQLVESGGGLVQAGGSLRLSCAASGSIFKANAMGWYRQAPGKERELVATITSSGTRTYYADSVKGRFTISRDNAKNTVYLQMNSLKPEDTAVYYCNARAYPYQRGRYGYWGQGTQVTVSS | high polyreactivity
39 | QVQLVESGGGLVQAGGSLRLSCAASGSTFSNYAMGWYRQAPGKERELVAVITRGASTYYADSVKGRFTISRDNAKNTVYLPMNSLKPEDTAVFYCNVPIRGQLVHTYPYDYWGQGTQVTVSS | high polyreactivity
40 | QVQLVESGGGLVQAGGSLRLSCAASGRIFSTYAMGWYRQAPGKERELVAAINKIGGSTYYADSVKGRITISRDNAKNTVYLQMNSLKPEDTAVYYCAADAPYYPVRRYYYWGQGTQVTVSS | low polyreactivity
41 | QVQLVESGGGLVQAGGSLRLSCAASGSIFVWNAMGWYRQAPGKERELVAAITNIGGRTYYADSVKGRFTISRDNAKNTFYLQMNSLKPEDTAVYYCNVVVKGAWDYYPYDYWGQGTQVTVSS | high polyreactivity
42 | QVQLVESGGGLFQAGGSLRLSCAASGSTFGRYAMGWYRQAPGTEREWLAAISRRGGSTYYADSVKGRFTISRDNAKNTVYLQMNSLKPEDSAVYYCATGYPIDLGREFDYWGQGFQVTVSS | high polyreactivity
43 | QVQLVESVGGLVQAGGSLRLSCAASGRTFWYYSMGWDREAPGKERELVAAITSGGSTNYADSVKGRFTISRDNAKNTVYLQIYSLKPEDTAVYYCDTDNPVFEYYYWGQGTQVTVSS | low polyreactivity
